# Laboratory results reported in paper doi:10.1101/098400 (bioRxiv, 2017).
# B1: Rous Sarcoma Virus capsid protein (RSV CA), wild type (natural protein, Rous Sarcoma Virus (strain Prague C), UniProt P03322 240-476, looked up)
# chain: PVVIKTEGPAWTPLEPKLITRLADTVRTKGLRSPITMAEVEALMSSPLLPHDVTNLMRVILGPAPYALWMDAWGVQLQTVIAAATRDPRHPANGQGRGERTNLNRLKGLADGMVGNPQGQAALLRPGELVAITASALQAFREVARLAEPAGPWADIMQGPSESFVDFANRLIKAVEGSDLPPSARAPVIIDCFRQKSQPDIQQLIRTAPSTLTTPGEIIKYVLDRQKTAPLTDQGIA
# Target: the molecule itself
# Assay: in vitro assembly seen by negative-stain transmission electron microscopy
protein,measurement,value
B1,stoichiometry N,6
